The text below walks through data of publication doi:10.1101/2023.07.08.548231.

The target of this assay is H2AK119Ub nucleosome (UniProt P04908). The assay can be described thus: cryo-EM structure.

Where “and” joins values, the source holds several entries; their conditions need not be identical. Identical values can stand only once.

Chain of GST-SSX1 (human SSX1 residues 111-188 with an N-terminal GST tag) (Q16384 111-188): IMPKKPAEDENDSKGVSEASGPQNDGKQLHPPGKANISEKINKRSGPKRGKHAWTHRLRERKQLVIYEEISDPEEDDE

Turning to “GST-SSX1 (human SSX1 residues 111-188 with an N-terminal GST tag) (from UniProt Q16384 111-188) (domain or fragment)”, the stoichiometry N (SSX1 per nucleosome) is 2 and 1.
